Source: paper PMC4110039

Legend:
[1] = target: HIV-1 JR2 F673L mutant Env (trimer of gp120-gp41 heterodimers) on pseudotyped virus (HIV-1 (isolate JR2))
[2] = target: HIV-1 JR2 wild type Env (trimer of gp120-gp41 heterodimers) on pseudotyped virus (HIV-1 (isolate JR2))

C34 peptide
IC50 of neutralization of pseudotyped virus (single cycle entry assay, TZM-bl cells); C34 acts on the NHR of gp41 [1]: 0.9 µg/mL
IC50 of neutralization of pseudotyped virus (single cycle entry assay, TZM-bl cells); C34 acts on the NHR of gp41 [2]: 1.2 µg/mL
